This data set has as its target ZBTB3 recombinant protein (UniProt Q9H5J0 1-574). The data set is described as follows: EMSA; 10 ng recombinant protein; EMSA: 20 nM biotin probe, 100 mM Tris pH 7.5, 55 mM KCl, 2.5 mM MgCl2, 1 mM DTT, 500 ng poly(dI-dC), 5% glycerol, 0.05% NP-40, 20 ul, room temperature 20 min; 500x unlabeled competitor; 6% native PAGE, 0.5x TBE. The settings on record: protein: commercial; chain copies: 2; label: 5' biotin on strand 1; blunt. For orientation: Mobility shift assays separate free from complexed probe on a gel.

ZBTB3 recombinant protein, sequence (Q9H5J0 whole entry): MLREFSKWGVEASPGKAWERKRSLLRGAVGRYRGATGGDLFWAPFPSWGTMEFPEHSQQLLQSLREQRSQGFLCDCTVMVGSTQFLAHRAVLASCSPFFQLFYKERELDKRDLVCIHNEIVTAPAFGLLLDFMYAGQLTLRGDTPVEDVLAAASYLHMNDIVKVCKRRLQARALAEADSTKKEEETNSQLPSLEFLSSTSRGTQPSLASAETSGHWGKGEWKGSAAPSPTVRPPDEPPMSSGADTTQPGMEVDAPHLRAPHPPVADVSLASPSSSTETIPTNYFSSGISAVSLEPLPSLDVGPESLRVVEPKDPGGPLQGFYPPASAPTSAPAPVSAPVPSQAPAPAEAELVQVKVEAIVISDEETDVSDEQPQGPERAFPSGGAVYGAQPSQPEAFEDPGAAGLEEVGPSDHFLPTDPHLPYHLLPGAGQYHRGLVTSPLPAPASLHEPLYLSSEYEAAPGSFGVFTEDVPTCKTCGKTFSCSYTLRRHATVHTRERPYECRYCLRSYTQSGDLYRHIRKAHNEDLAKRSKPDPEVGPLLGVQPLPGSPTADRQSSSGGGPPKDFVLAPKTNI

B1: IRF5-promoter (dsDNA)
DNA 1: CCGGGAGCCCCGCTGGAGGCTGGCTTGGA
DNA 2: TCCAAGCCAGCCTCCAGCGGGGCTCCCGG
B1: the binding result was “binds”.

B2: rs4728142-A (dsDNA)
DNA 1: CCAAAAAGCTCTGAGCCAGTGTTAGTAAGAAATGG
DNA 2: CCATTTCTTACTAACACTGGCTCAGAGCTTTTTGG
Take B2: the binding result is reported as “binds”.
